From the supplement of paper PMC7877785
± gives the uncertainty stated by the source.

Test: self-splicing fitness, log relative to wild type (ln ratio); higher = more splicing; Tetrahymena group I intron in knt gene, E. coli kanamycin selection, DiMSum; sequences stand for … in CUCUCU…GGAGGGAAAAGUUAUCAGGCAUGCACCUGGUAGCUAGUCUUUAAACCAAUAGAUUGCAUCGGUUUAAAAGGCAAGACCGUCAAAUUGCGGGAAAGGGGUCAACAGCCGUUCAGUACCAAGUCUCAGGGGAAACUUUGAGAUGGCCUUGCAAAGGGUAUGGUAAUAAGCUGACGGACAUGGUCCUAACCACGCAGCCAAGUCCUAAGUCAACAGAUCUUCUGUUGAUAUGGAUGCAGUUCACAGACUAAAUGUCGGUCGGGGAAGAUGUAUUCUUCUCAUAAGAUAUAGUCGGACCUCUCCUUAAUGGGAGCUAGCGGAUGAAGUGAUGCAACACUGGAGCCGCUGGGAACUAAUUUGUAUGCGAAAGUAUAUUGAUUAGUUUUGGAGUACUCGUGGUCG
Summary of the method: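 Library with all eight P1ex-region intron nucleotides randomised, intron inside the knt kanamycin-resistance gene on pET-22b(+), in E. coli BL21(DE3). Cells grew overnight at 37°C or 30°C on LB agar with or without 25 μg/mL kanamycin (plus 100 μg/mL carbenicillin, 50 μM IPTG, 0.2% rhamnose), in six replicate transformations. Pooled colonies were amplicon-sequenced on Illumina HiSeq 2500. DiMSum fitness is the error-weighted combination of wild-type-normalised replicate fold changes, kanamycin versus none.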

Row | Sequence | self-splicing fitness (ln) (30 °C) | self-splicing fitness (ln) (37 °C)
1 | GGGGAGCAAUAUUACGAUAC | -2.37 ± 0.3 | -0.552 ± 0.27
2 | UGGCAGCAAUAUUACGGUCG | -0.881 ± 0.083 | 0.133 ± 0.13
3 | CUGUAGCAAUAUUACGGAAG | -3.31 ± 0.16 | -2.22 ± 0.19
4 | CAGGAGCAAUAUUACGACUC | -2.74 ± 0.11 | -2.14 ± 0.15
5 | GAGUAGCAAUAUUACGGUCU | -1.24 ± 0.15 | -1.22 ± 0.17
6 | UUAGAGCAAUAUUACGGCAA | -0.627 ± 0.12 | -0.584 ± 0.18
7 | UAGUAGCAAUAUUACGGUCC | – | -1.53 ± 0.35
8 | UCCGAGCAAUAUUACGUGGA | -2.47 ± 0.17 | -2.52 ± 0.19
9 | UCGGAGCAAUAUUACGCUAA | -2.18 ± 0.35 | –
10 | CGACAGCAAUAUUACGUACU | -1.26 ± 0.082 | -0.578 ± 0.089
11 | GGUAAGCAAUAUUACGGCCG | -0.712 ± 0.12 | -0.544 ± 0.17
12 | UGAUAGCAAUAUUACGAGAU | -3.87 ± 0.43 | -1.92 ± 0.3
13 | AUGAAGCAAUAUUACGAUAA | -0.381 ± 0.077 | -0.287 ± 0.085
14 | AGGAAGCAAUAUUACGAUAC | -3.27 ± 0.26 | -2.02 ± 0.2
15 | GAUCAGCAAUAUUACGAGGU | -2.98 ± 0.24 | -2.84 ± 0.22
16 | AGCUAGCAAUAUUACGGGUU | -2.74 ± 0.14 | -2.12 ± 0.18
17 | CAUAAGCAAUAUUACGUAUG | -3.87 ± 0.2 | -2.74 ± 0.23
18 | GUUAAGCAAUAUUACGACGA | -1.13 ± 0.11 | -1.14 ± 0.12
19 | ACCAAGCAAUAUUACGCAGG | -3.41 ± 0.13 | -2.59 ± 0.13
20 | GUUAAGCAAUAUUACGAAGC | -2.32 ± 0.41 | -1.82 ± 0.3
21 | ACAAAGCAAUAUUACGGUAU | -3.56 ± 0.13 | -1.35 ± 0.099
22 | AGGGAGCAAUAUUACGCGCA | -1.71 ± 0.4 | -2.11 ± 0.34
23 | UUAUAGCAAUAUUACGCGUU | -3.58 ± 0.16 | -2.16 ± 0.17
24 | CCAAAGCAAUAUUACGGCGC | -3.65 ± 0.34 | -2.49 ± 0.29
25 | AUUGAGCAAUAUUACGACUG | – | -0.882 ± 0.25

Row | Sequence | self-splicing fitness (ln) (30 °C) | self-splicing fitness (ln) (37 °C)
26 | AUGCAGCAAUAUUACGGCAG | -0.985 ± 0.11 | -1.29 ± 0.15
27 | UGUCAGCAAUAUUACGUGGC | -4.53 ± 0.31 | -3.13 ± 0.31
28 | GGGAAGCAAUAUUACGACUC | -1.17 ± 0.1 | -0.341 ± 0.13
29 | UAGUAGCAAUAUUACGCUUG | -0.659 ± 0.092 | -0.506 ± 0.13
30 | UCAAAGCAAUAUUACGUAGC | -4 ± 0.31 | -2.52 ± 0.27
31 | UUUAAGCAAUAUUACGACAG | -0.664 ± 0.15 | -0.475 ± 0.2
32 | CAGGAGCAAUAUUACGCGGA | -2.78 ± 0.25 | –
33 | UGCGAGCAAUAUUACGCAAU | -3.57 ± 0.18 | -2.72 ± 0.14
34 | UCUCAGCAAUAUUACGUCAU | -3.13 ± 0.2 | -3.29 ± 0.27
35 | AGGCAGCAAUAUUACGGGCA | -1.39 ± 0.2 | -0.422 ± 0.17
36 | CAUAAGCAAUAUUACGAUCA | -2.28 ± 0.21 | -1.87 ± 0.2
37 | AGAAAGCAAUAUUACGGUGG | -3.11 ± 0.18 | -2.32 ± 0.17
38 | CAUAAGCAAUAUUACGAUGA | -2.58 ± 0.14 | -0.929 ± 0.13
39 | GUCUAGCAAUAUUACGUCAU | -0.258 ± 0.12 | -0.425 ± 0.081
40 | UAUGAGCAAUAUUACGAUGG | -3.59 ± 0.29 | -0.796 ± 0.23
41 | GCAAAGCAAUAUUACGACAC | -0.783 ± 0.099 | -0.461 ± 0.13
42 | GCCUAGCAAUAUUACGAACG | -2.19 ± 0.19 | -0.701 ± 0.27
43 | GAUUAGCAAUAUUACGACCU | -0.343 ± 0.13 | -0.777 ± 0.18
44 | GGGUAGCAAUAUUACGUCUU | -0.106 ± 0.1 | 0.268 ± 0.14
45 | CCCUAGCAAUAUUACGGCUA | -2.53 ± 0.17 | -3.13 ± 0.31
46 | AGUCAGCAAUAUUACGAGGC | -2.81 ± 0.31 | -0.606 ± 0.31
47 | CUUUAGCAAUAUUACGGGGG | -4.05 ± 0.46 | -2.65 ± 0.45
48 | UUGAAGCAAUAUUACGAUGU | -1.61 ± 0.067 | -0.962 ± 0.11
49 | GGUCAGCAAUAUUACGAACA | -0.818 ± 0.14 | -0.749 ± 0.17
